# According to publication PMC5389812, “Rv3634c from Mycobacterium tuberculosis H37Rv encodes an enzyme with UDP-Gal/Glc and UDP-GalNAc 4-epimerase activities” (PLoS ONE, 2017):
# B1: His-tagged Rv3634c (H3634) S121A mutant (enzyme)
# chain: MRALVTGAAGFIGSTLVDRLLADGHSVVGLDNFATGRATNLEHLADNSAHVFVEADIVTADLHAILEQHRPEVVFHLAAQIDVRRSVADPQFDAAVNVIGTVRLAEAARQTGVRKIVHTSAGGSIYGTPPEYPTPETAPTDPASPYAAGKVAGEIYLNTFRHLYGLDCSHIAPANVYGPRQDPHGEAGVVAIFAQALLSGKPTRVFGDGTNTRDYVFVDDVVDAFVRVSADVGGGLRFNIGTGKETSDRQLHSAVAAAVGGPDDPEFHPPRLGDLKRSCLDIGLAERVLGWRPQIELADGVRRTVEYFRHKHTD
# notes: not shown: His6, N-terminal, kept
# B2: His-tagged Rv3634c (H3634) K150R mutant (enzyme)
# chain: MRALVTGAAGFIGSTLVDRLLADGHSVVGLDNFATGRATNLEHLADNSAHVFVEADIVTADLHAILEQHRPEVVFHLAAQIDVRRSVADPQFDAAVNVIGTVRLAEAARQTGVRKIVHTSSGGSIYGTPPEYPTPETAPTDPASPYAAGRVAGEIYLNTFRHLYGLDCSHIAPANVYGPRQDPHGEAGVVAIFAQALLSGKPTRVFGDGTNTRDYVFVDDVVDAFVRVSADVGGGLRFNIGTGKETSDRQLHSAVAAAVGGPDDPEFHPPRLGDLKRSCLDIGLAERVLGWRPQIELADGVRRTVEYFRHKHTD
# notes: as for B1
# B3: His-tagged Rv3634c (H3634) Y146F mutant (enzyme)
# chain: MRALVTGAAGFIGSTLVDRLLADGHSVVGLDNFATGRATNLEHLADNSAHVFVEADIVTADLHAILEQHRPEVVFHLAAQIDVRRSVADPQFDAAVNVIGTVRLAEAARQTGVRKIVHTSSGGSIYGTPPEYPTPETAPTDPASPFAAGKVAGEIYLNTFRHLYGLDCSHIAPANVYGPRQDPHGEAGVVAIFAQALLSGKPTRVFGDGTNTRDYVFVDDVVDAFVRVSADVGGGLRFNIGTGKETSDRQLHSAVAAAVGGPDDPEFHPPRLGDLKRSCLDIGLAERVLGWRPQIELADGVRRTVEYFRHKHTD
# notes: as for B1
# Biological target: the molecule itself
# Test: SEC; Superdex 200 16/600 GL column, FPLC buffer (20 mM Tris pH 8.0, 100 mM NaCl); calibrated with conalbumin, ovalbumin, carbonic anhydrase, ribonuclease A and aprotinin; molecular weight from Kav
row,Protein,stoichiometry N
1,B1,2
2,B2,2
3,B3,2
